Measurements published in patent US20030120051A1 (SUGEN, published 2003).

Key:
rat CASPR/p190 = biological target: T1, rat CASPR/p190 (rat, UniProt P97846 21-1381); assay: co-precipitation of p190 with contactin by the RPTPβ Fc fusion from GH3 membrane extracts
T1 construct: Endogenous in GH3 cells and rat brain, or expressed from pCM190R in COS7 cells; read from membrane lysates; no cleavage site stated; also called Contactin ASsociated PRotein; 190 kDa protein
T1 sequence: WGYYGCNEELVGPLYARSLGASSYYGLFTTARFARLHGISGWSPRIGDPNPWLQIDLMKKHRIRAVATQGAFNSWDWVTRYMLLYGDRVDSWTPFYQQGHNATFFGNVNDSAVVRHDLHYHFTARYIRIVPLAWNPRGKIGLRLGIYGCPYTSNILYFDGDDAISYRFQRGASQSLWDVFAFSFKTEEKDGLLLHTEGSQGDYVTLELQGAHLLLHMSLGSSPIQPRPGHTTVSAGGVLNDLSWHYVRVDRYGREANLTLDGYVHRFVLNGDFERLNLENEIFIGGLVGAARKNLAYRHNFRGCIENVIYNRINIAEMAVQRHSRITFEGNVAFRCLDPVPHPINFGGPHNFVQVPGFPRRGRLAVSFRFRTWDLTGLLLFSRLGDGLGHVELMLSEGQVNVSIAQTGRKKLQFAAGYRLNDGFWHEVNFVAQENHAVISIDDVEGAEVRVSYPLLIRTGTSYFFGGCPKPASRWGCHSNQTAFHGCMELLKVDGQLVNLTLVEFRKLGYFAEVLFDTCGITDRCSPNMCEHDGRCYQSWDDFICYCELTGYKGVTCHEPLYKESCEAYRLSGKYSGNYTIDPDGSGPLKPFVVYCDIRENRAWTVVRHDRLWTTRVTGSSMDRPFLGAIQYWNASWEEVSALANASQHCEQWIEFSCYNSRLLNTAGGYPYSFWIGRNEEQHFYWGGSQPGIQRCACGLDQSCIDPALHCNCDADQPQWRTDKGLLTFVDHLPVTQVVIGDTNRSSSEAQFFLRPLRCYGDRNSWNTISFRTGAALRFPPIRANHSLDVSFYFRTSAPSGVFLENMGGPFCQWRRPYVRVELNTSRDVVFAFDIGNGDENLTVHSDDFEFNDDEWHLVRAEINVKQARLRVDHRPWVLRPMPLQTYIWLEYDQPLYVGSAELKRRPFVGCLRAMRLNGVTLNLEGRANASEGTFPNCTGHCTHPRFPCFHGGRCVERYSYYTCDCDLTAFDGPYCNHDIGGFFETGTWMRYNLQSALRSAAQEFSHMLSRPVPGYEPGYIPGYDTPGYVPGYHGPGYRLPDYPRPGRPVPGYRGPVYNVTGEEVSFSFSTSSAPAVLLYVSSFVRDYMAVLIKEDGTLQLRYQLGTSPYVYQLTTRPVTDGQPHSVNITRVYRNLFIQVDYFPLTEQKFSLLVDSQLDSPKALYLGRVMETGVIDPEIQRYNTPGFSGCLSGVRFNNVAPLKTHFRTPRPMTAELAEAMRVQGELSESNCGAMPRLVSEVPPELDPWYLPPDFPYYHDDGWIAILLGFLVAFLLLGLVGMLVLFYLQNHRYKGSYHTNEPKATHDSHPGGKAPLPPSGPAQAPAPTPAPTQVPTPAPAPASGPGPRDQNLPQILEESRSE

human CASPR/p190 = biological target: T2, human CASPR/p190 (human, UniProt P78357 20-1384); assay: immunoprecipitation of IMR-32 lysates with CASPR/p190 antibodies, immunoblotting with contactin antibodies
T2 construct: Endogenous in IMR-32 neuroblastoma cells
T2 sequence: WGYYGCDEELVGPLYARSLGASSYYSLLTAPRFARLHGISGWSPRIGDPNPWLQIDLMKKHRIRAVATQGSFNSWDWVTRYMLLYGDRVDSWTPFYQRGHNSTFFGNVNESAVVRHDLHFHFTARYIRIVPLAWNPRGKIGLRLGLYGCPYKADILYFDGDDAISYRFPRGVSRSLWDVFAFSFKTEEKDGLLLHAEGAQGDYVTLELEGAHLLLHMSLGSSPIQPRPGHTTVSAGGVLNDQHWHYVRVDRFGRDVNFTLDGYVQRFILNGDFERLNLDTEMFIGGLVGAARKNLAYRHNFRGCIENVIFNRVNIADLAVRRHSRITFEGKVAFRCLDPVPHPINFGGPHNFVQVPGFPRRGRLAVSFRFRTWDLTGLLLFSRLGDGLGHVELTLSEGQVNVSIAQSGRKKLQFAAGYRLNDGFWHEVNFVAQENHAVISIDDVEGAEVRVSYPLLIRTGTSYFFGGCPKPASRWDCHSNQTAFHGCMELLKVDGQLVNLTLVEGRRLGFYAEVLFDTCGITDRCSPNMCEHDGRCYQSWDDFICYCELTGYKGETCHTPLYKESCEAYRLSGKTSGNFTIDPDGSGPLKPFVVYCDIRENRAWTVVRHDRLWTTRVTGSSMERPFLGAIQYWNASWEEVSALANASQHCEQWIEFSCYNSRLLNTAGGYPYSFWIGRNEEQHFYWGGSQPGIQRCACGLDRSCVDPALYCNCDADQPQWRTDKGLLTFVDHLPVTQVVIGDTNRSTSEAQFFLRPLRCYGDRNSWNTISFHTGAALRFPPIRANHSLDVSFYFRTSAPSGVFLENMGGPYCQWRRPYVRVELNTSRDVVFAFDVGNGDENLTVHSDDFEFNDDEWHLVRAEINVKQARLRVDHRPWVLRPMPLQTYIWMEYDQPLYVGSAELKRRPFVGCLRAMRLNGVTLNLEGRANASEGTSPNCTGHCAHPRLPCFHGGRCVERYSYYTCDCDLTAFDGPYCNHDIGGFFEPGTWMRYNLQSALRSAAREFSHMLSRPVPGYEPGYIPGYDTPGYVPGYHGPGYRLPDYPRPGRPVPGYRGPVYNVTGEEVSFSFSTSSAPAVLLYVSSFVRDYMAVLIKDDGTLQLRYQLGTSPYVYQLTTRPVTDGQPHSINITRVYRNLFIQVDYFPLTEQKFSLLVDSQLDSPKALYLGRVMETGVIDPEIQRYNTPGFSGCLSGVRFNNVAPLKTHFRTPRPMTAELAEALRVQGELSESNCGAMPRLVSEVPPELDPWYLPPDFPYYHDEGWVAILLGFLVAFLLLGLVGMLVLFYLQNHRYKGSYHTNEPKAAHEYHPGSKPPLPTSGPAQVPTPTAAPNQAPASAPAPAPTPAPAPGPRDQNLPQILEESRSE

human c-Src = human c-Src (human, UniProt P12931 2-536); assay: immunoprecipitation of transfected COS7 lysates with antibodies against c-Src, immunoblotting with anti-fusion antibodies

B1: rat contactin (clone F8; p140 of GH3 cells) (receptor, UniProt Q63198 21-1001, looked up)
chain: EFTWHRRYGHGVSEEDKGFGPIFEEQPINTIYPEESLEGKVSLNCRARASPFPVYKWRMNNGDVDLTNDRYSMVGGNLVINNPDKQKDAGIYYCLASNNYGMVRSTEATLSFGYLDPFPPEDRPEVKVKEGKGMVLLCDPPYHFPDDLSYRWLLNEFPVFITMDKRRFVSQTNGNLYIANVESSDRGNYSCFVSSPSITKSVFSKFIPLIPIPERTTKPYPADIVVQFKDIYTMMGQNVTLECFALGNPVPDIRWRKVLEPMPTTAEISTSGAVLKIFNIQLEDEGLYECEAENIRGKDKHQARIYVQAFPEWVEHINDTEVDIGSDLYWPCVATGKPIPTIRWLKNGYAYHKGELRLYDVTFENAGMYQCIAENAYGTIYANAELKILALAPTFEMNPMKKKILAAKGGRVIIECKPKAAPKPKFSWSKGTEWLVNSSRILIWEDGSLEINNITRNDGGIYTCFAENNRGKANSTGTLVITNPTRIILAPINADITVGENATMQCAASFDPSLDLTFVWSFNGYVIDFNKEITNIHYQRNFMLDANGELLIRNAQLKHAGRYTCTAQTIVDNSSASADLVVRGPPGPPGGLRIEDIRATSVALTWSRGSDNHSPISKYTIQTKTILSDDWKDAKTDPPIIEGNMESAKAVDLIPWMEYEFRVVATNTLGTGEPSIPSNRIKTDGAAPNVAPSDVGGGGGTNRELTITWAPLSREYHYGNNFGYIVAFKPFDGEEWKKVTVTNPDTGRYVHKDETMTPSTAFQVKVKAFNNKGDGPYSLIAVINSAQDAPSEAPTEVGVKVLSSSEISVHWKHVLEKIVESYQIRYWAGHDKEAAAHRVQVTSQEYSARLENLLPDTQYFIEVGACNSAGCGPSSDVIETFTRKAPPSQPPRIISSVRSGSRYIITWDHVVALSNESTVTGYKILYRPDGQHDGKLFSTHKHSIEVPIPRDGEYVVEVRAHSDGGDGVVSQVKISGVSTLS
modifications: GPI-anchored
notes: whole, on cells; On transfected COS7 cells, on GH3 cells, in solubilized GH3 membranes or in rat brain membranes, as the entry says; also called rat homologue of contactin; F3/F11
- binding result (rat CASPR/p190): binds

B2: human contactin of IMR-32 neuroblastoma cells (140 kDa protein) (receptor, UniProt Q12860 21-993, looked up)
chain: EFTWYRRYGHGVSEEDKGFGPIFEEQPINTIYPEESLEGKVSLNCRARASPFPVYKWRMNNGDVDLTSDRYSMVGGNLVINNPDKQKDAGIYYCLASNNYGMVRSTEATLSFGYLDPFPPEERPEVRVKEGKGMVLLCDPPYHFPDDLSYRWLLNEFPVFITMDKRRFVSQTNGNLYIANVEASDKGNYSCFVSSPSITKSVFSKFIPLIPIPERTTKPYPADIVVQFKDVYALMGQNVTLECFALGNPVPDIRWRKVLEPMPSTAEISTSGAVLKIFNIQLEDEGIYECEAENIRGKDKHQARIYVQAFPEWVEHINDTEVDIGSDLYWPCVATGKPIPTIRWLKNGYAYHKGELRLYDVTFENAGMYQCIAENTYGAIYANAELKILALAPTFEMNPMKKKILAAKGGRVIIECKPKAAPKPKFSWSKGTEWLVNSSRILIWEDGSLEINNITRNDGGIYTCFAENNRGKANSTGTLVITDPTRIILAPINADITVGENATMQCAASFDPALDLTFVWSFNGYVIDFNKENIHYQRNFMLDSNGELLIRNAQLKHAGRYTCTAQTIVDNSSASADLVVRGPPGPPGGLRIEDIRATSVALTWSRGSDNHSPISKYTIQTKTILSDDWKDAKTDPPIIEGNMEAARAVDLIPWMEYEFRVVATNTLGRGEPSIPSNRIKTDGAAPNVAPSDVGGGGGRNRELTITWAPLSREYHYGNNFGYIVAFKPFDGEEWKKVTVTNPDTGRYVHKDETMSPSTAFQVKVKAFNNKGDGPYSLVAVINSAQDAPSEAPTEVGVKVLSSSEISVHWEHVLEKIVESYQIRYWAAHDKEEAANRVQVTSQEYSARLENLLPDTQYFIEVGACNSAGCGPPSDMIEAFTKKAPPSQPPRIISSVRSGSRYIITWDHVVALSNESTVTGYKVLYRPDGQHDGKLYSTHKHSIEVPIPRDGEYVVEVRAHSDGGDGVVSQVKIS
modifications: GPI-anchored
notes: whole, on cells; also called p140
- binding result (human CASPR/p190): binds

B3: HA-tagged rat CASPR/p190 (pCM190HA) (receptor, not shown: small tags and cut ends)
chain: WGYYGCNEELVGPLYARSLGASSYYGLFTTARFARLHGISGWSPRIGDPNPWLQIDLMKKHRIRAVATQGAFNSWDWVTRYMLLYGDRVDSWTPFYQQGHNATFFGNVNDSAVVRHDLHYHFTARYIRIVPLAWNPRGKIGLRLGIYGCPYTSNILYFDGDDAISYRFQRGASQSLWDVFAFSFKTEEKDGLLLHTEGSQGDYVTLELQGAHLLLHMSLGSSPIQPRPGHTTVSAGGVLNDLSWHYVRVDRYGREANLTLDGYVHRFVLNGDFERLNLENEIFIGGLVGAARKNLAYRHNFRGCIENVIYNRINIAEMAVQRHSRITFEGNVAFRCLDPVPHPINFGGPHNFVQVPGFPRRGRLAVSFRFRTWDLTGLLLFSRLGDGLGHVELMLSEGQVNVSIAQTGRKKLQFAAGYRLNDGFWHEVNFVAQENHAVISIDDVEGAEVRVSYPLLIRTGTSYFFGGCPKPASRWGCHSNQTAFHGCMELLKVDGQLVNLTLVEFRKLGYFAEVLFDTCGITDRCSPNMCEHDGRCYQSWDDFICYCELTGYKGVTCHEPLYKESCEAYRLSGKYSGNYTIDPDGSGPLKPFVVYCDIRENRAWTVVRHDRLWTTRVTGSSMDRPFLGAIQYWNASWEEVSALANASQHCEQWIEFSCYNSRLLNTAGGYPYSFWIGRNEEQHFYWGGSQPGIQRCACGLDQSCIDPALHCNCDADQPQWRTDKGLLTFVDHLPVTQVVIGDTNRSSSEAQFFLRPLRCYGDRNSWNTISFRTGAALRFPPIRANHSLDVSFYFRTSAPSGVFLENMGGPFCQWRRPYVRVELNTSRDVVFAFDIGNGDENLTVHSDDFEFNDDEWHLVRAEINVKQARLRVDHRPWVLRPMPLQTYIWLEYDQPLYVGSAELKRRPFVGCLRAMRLNGVTLNLEGRANASEGTFPNCTGHCTHPRFPCFHGGRCVERYSYYTCDCDLTAFDGPYCNHDIGGFFETGTWMRYNLQSALRSAAQEFSHMLSRPVPGYEPGYIPGYDTPGYVPGYHGPGYRLPDYPRPGRPVPGYRGPVYNVTGEEVSFSFSTSSAPAVLLYVSSFVRDYMAVLIKEDGTLQLRYQLGTSPYVYQLTTRPVTDGQPHSVNITRVYRNLFIQVDYFPLTEQKFSLLVDSQLDSPKALYLGRVMETGVIDPEIQRYNTPGFSGCLSGVRFNNVAPLKTHFRTPRPMTAELAEAMRVQGELSESNCGAMPRLVSEVPPELDPWYLPPDFPYYHDDGWIAILLGFLVAFLLLGLVGMLVLFYLQNHRYKGSYHTNEPKATHDSHPGGKAPLPPSGPAQAPAPTPAPTQVPTPAPAPASGPGPRDQNLPQILEESRSE
notes: Expressed in COS7 cells; also called tagged CASPR/p190; CASPR/p190 fusion proteins
- binding result (human c-Src): binds
